Results: article PMC9992855, “Functional polyamine metabolic enzymes and pathways encoded by the virosphere” (Proceedings of the National Academy of Sciences of the …, 2023)

Tested on: N=C(N)NCCC[C@H](N)C(=O)O
Experiment: purified protein
Conditions: 27 °C
Excerpt: decarboxylase activity assay on Ca. Fonsibacter ubiquis "ODC" (ODC/ADC)

Ca. Fonsibacter ubiquis "ODC" (ODC/ADC) (unidentified)
Km: 1300 ± 120 µM
kcat: 2.2 ± 0.13 s⁻¹
kcat/Km: 1700 ± 91 M⁻¹ s⁻¹
